The supplement of paper PMC9170038

Test system: MS2 coat protein
Experiment: apparent KD of MS2 coat protein; designed switch direction (-1 OFF switch, 1 ON switch): 1; higher = weaker reporter binding
Procedure, shortened: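 An oligonucleotide input, 200 uM small-molecule ligand, or no input was present during titration of SNAP-549-labelled MS2 coat protein, which was doubled from 0.7 or 1.5 nM to 3 µM. Designed RNA switches had been transcribed on Illumina chips by stalled E. coli RNA polymerase. Apparent KD per design is the median over clusters of curves fitted to normalised cluster fluorescence.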

[1] = input ligand: microRNA oligo, concentration not stated
[2] = Eterna round: R95, input ligand: FMN 200 uM
[3] = Eterna round: R95, input ligand: microRNA oligo, concentration not stated
[4] = Eterna round: R95, input ligand: none

Sequence | apparent KD of MS2 coat protein (input ligand: FMN 200 uM) | apparent KD of MS2 coat protein [1] | apparent KD of MS2 coat protein (input ligand: none) | apparent KD of MS2 coat protein [2] | apparent KD of MS2 coat protein [3] | apparent KD of MS2 coat protein [4]
GUACAUAUUAUAGGAUAUCACGUCGAAUAGACGUGAGAAGGAUAAUCCCACAUGAAUAUUAAUACAUGAGGAUCACCCAUGUAC [SSNG1/18-A1] (Eterna round: R96, puzzle: Same State NG 1) | 42 nM | 49.7 nM | 49.2 nM |  |  | 
GUAGAUAUAACGGAGGAUAUUCAAUGAGAGACAUGAGGAUCACCCAUGUAAGAGUGAGAUGAUAGGAAGAAGGCUGAGAGAGAUG [Altered State 2-9 - Jieux - Same State 2] (puzzle: Same State 2) |  |  |  | 140 nM | 139 nM | 102 nM
GUAGCAUACCGAGGAUAUUCAUACAUGAGGAUCACCCAUGUUAUUAUAGGCCGAUUACGGCCUUGGGAGAAGGCGGAAUGCUAC [Xeonanis - 20 Mod28] (Eterna round: R96, puzzle: Same State NG 2) | 13.1 nM | 11.4 nM | 16.1 nM |  |  | 
GUAGGACAUGAGGAUCACCCAUGUGGAGAGGAACGAGGAUAUGUGAGAGGAGUGCAGAGGACAGAAGGCGUGGAGG [JR_SS1_Sub027] (puzzle: Same State 1) |  |  |  | 42.6 nM | 31.1 nM | 62.1 nM
GUAUCUACAGGUUUUUUAGCUCGUCUGAUACAUGAGGAUCACCCAUGUUAUAGCCCUGUGCUUGCGCAGGGCUGAGG [Sensor for hsa-mir-208a ( MOD of Tearor v.4 )] (puzzle: Sensor for hsa-mir-208a) |  |  |  | 47.6 nM | 34.1 nM | 49.3 nM
GUCAGGCAAGCUUUUUUCUCGUAGUGUAAACAUGAGGAUCACCCAUGUGCUCGCCCUGGAUCUUUGGAUCCCAGAAA [Anedraus] (puzzle: Sensor for hsa-mir-208a) |  |  |  | 40.2 nM | 21 nM | 41.9 nM
GUGAAGAAUUAAGGAUAUCGAGUCAAGAUGUUAAACAUGAGGAUCACCCAUGUGGGUUGCGGUAUCGAGAAGGUAAAUUACAAG [salish99_SSNG2_r04_501] (Eterna round: R96, puzzle: Same State NG 2) | 26.7 nM | 25.9 nM | 31.4 nM |  |  | 
GUGCAACCGUGUGAGGAUAUCGGUGAAUAAACAUGAGGAUCACCCAUGUCCGAAGCUCGGUUCUCCGAGAAGGCGCACAGUUGCA [Same State 2 - Mod of Erisin v.4] (puzzle: Same State 2) |  |  |  | 23.8 nM | 116 nM | 159 nM
GUGCUCGUGUGAGGAUAUGCUUCCGUUUCGGCUGCAGAAGGUACUAUUAUACAUGAGGAUCACCCAUGUCUCUUUUCUUCGGUG [salish99_SSNG1_r04_912] (Eterna round: R96, puzzle: Same State NG 1) |  | 22.8 nM |  |  |  | 
GUGCUCGUGUGAGGAUAUGCUUCCGUUUCGGCUGCAGAAGGUACUAUUAUACAUGAGGAUCACCCAUGUCUCUUUUGUUUGGUG [salish99_SSNG1_r04_910] (Eterna round: R96, puzzle: Same State NG 1) | 95 nM | 51.9 nM | 67.8 nM |  |  | 
GUGCUCGUGUGAGGAUAUGUUGCCGGGUCGGCUGCAGAAGGUACUAUUAUACAUGAGGAUCACCCAUGUCGCUUUUCUCCGGUG [salish99_SSNG1_r04_920] (Eterna round: R96, puzzle: Same State NG 1) | 98.3 nM | 58.8 nM | 65.8 nM |  |  | 
GUGGCCCAGGCACAGGAUAUGUUUCUCGUAACAUGAGGAUCACCCAUGUGCCUAUGAGAUAUAAUGCAGAAGGGUGCACGCCACG [Mat - Same State 2 - Mod of UCT - D80] (puzzle: Same State 2) |  |  |  | 16.2 nM | 68.2 nM | 60.9 nM
GUGGCGGGUUGAGGAUAUUGGUUGCCUAUGUUUUACAUGAGGAUCACCCAUGUGGGUUGCGGUUUCGAGAAGGUAGGUUGCUGG [salish99_SSNG2_r04_047] (Eterna round: R96, puzzle: Same State NG 2) | 420 nM | 228 nM | 347 nM |  |  | 
GUGGUCAGACAUGAGGAUCACCCAUGUGGAAUAAAUAACAGACAGGAUAUCCAAUAUAGGAUAUAGGAGAAGGGUCGAUUGGUG (Eterna round: R96, puzzle: Same State NG 3) |  | 56.9 nM |  |  |  | 
GUGGUCAGACAUGAGGAUCACCCAUGUGGAAUAAAUAACGAACAGGAUAUGCAAUAUAGGAUAUAGUAGAAGGGUUGAUUGGUG (Eterna round: R96, puzzle: Same State NG 3) |  | 82.4 nM |  |  |  | 
GUGGUCAGACAUGAGGAUCACCCAUGUGGAAUAAAUAACGGACAGGAUAUCGAAUAUAGGAUAUACGAGAAGGGUUGAUUGGUG (Eterna round: R96, puzzle: Same State NG 3) |  | 53.9 nM |  |  |  | 
GUGGUCAGACAUGAGGAUCACCCAUGUGGAAUAAAUAAGGAAUAGGAUAUGGAAUAUAGGAUAUACCAGAAGGGUUGGUUGGUG (Eterna round: R96, puzzle: Same State NG 3) |  | 73.4 nM |  |  |  | 
GUGGUCAGACAUGAGGAUCACCCAUGUGGAAUAAAUAAGGAGAAGGAUAUUAAAUAUAGGAUAUAUAAGAAGGUCUGGUUGGUG (Eterna round: R96, puzzle: Same State NG 3) |  | 65.2 nM |  |  |  | 
GUGGUCAGACAUGAGGAUCACCCAUGUGGAAUAAAUAAGGUCAAGGAUAUUCAAUAUAGGAUAUAGAAGAAGGUGAGGUUGGUG (Eterna round: R96, puzzle: Same State NG 3) |  | 108 nM |  |  |  | 
GUGGUUCUCGUAGGAUAUGUAGGAUAUGCCUACAUGAGGAUCACCCAUGUUCGCAUGGCAGAAGGACAGAAGGACGAUCACUAA [pwkr ssNG2 2FMN + 1F5.15] (Eterna round: R96, puzzle: Same State NG 2) | 159 nM | 11.7 nM | 94.2 nM |  |  | 
GUUAAACAUGAGGAUCACCCAUGUAAUAUAAUGGGAGGAUAUCUGAAUUAAUUAAAUUAAGGAGAAGGCCUAAUUG [Mat - Same State 1 - Mod of Eli - D52] (puzzle: Same State 1) |  |  |  | 42 nM | 181 nM | 255 nM
GUUAAACAUGAGGAUCACCCAUGUAAUCAUAUGGGAGGAUAUGGGAAUUAAUUAAUUAAACCAGAAGGCCUAAUUG [Mat - Same State 1 - D83] (puzzle: Same State 1) |  |  |  | 19.6 nM | 87.4 nM | 92.3 nM
GUUACAUGAGGAUCACCCAUGUAUGUGUGGGAGUAAGUGUCUUAGGAUAUCUAGGAUUUAAUUUAAGAGAAGGAAGAUUGUUGU [JMF's solution 50] (Eterna round: R96, puzzle: Same State NG 3) | 89.7 nM | 45.9 nM | 77.4 nM |  |  | 
GUUACAUGAGGAUCACCCAUGUAUGUGUGGGAGUAAGUGUCUUAGGAUAUCUAGUAUUUAAUUUGAGAGAAGGAAGAUUGUUGU [JMF's solution 70] (Eterna round: R96, puzzle: Same State NG 3) | 138 nM | 83.9 nM | 147 nM |  |  | 
GUUACAUGAGGAUCACCCAUGUAUGUGUGGGAGUAAGUGUCUUAGGAUAUCUAGUAUUUUAUUUAAGAGAAGGAAGAUUGUUGU [JMF's solution 59] (Eterna round: R96, puzzle: Same State NG 3) | 130 nM | 93.7 nM | 112 nM |  |  | 
GUUACAUGAGGAUCACCCAUGUGUGUGUGGGAGUGAGUGGCUUAGGAUAUCUAUGAUUUUAGUUAAGAGAAGGGAGAUUGUUGU [SS-NG3-LRO05] (Eterna round: R96, puzzle: Same State NG 3) | 554 nM | 276 nM | 328 nM |  |  | 
GUUAUACAUGAGGAUCACCCAUGUCAAUGUAGUCGAGGAUAUGGGCAGCUAUGAGGCGUACUAGAAGGCGAGAAGU [Mat - Same State 1 - Mod of JL - D15] (puzzle: Same State 1) |  |  |  | 125 nM | 268 nM | 437 nM
UAAAAACAUGAGGAUCACCCAUGUGAAAAUAUGGGAGGAUAUACAAAGACGAGAGUCAAAGUAGAAGGCCUAAAAU [Mat - Same State 1 - Eli mod - D88] (Eterna round: R96, puzzle: Same State 1) | 21.9 nM | 68.3 nM | 86.6 nM |  |  | 
UAACAGUACAAUUUAGAUCUACAUGAGGAUCACCCAUGUACUGAGGAUAUCAGCUCGUUUAGAGCUGAGAAGGCAGAAGAACUA [SSNG3/11-A3] (Eterna round: R96, puzzle: Same State NG 3) | 39.7 nM | 154 nM | 218 nM |  |  | 
